# Experimental data published in patent publication US7375083B2, “Pharmaceutical compositions for prevention of overdose or abuse” (Shire LLC, priority 2003, dated 2008).
# Where a SMILES comes first, the peptide text is derived from it. The star is where a group is joined. X1 = COc1ccc2c3c1O[C@H]1C(O*)=CC[C@H]4[C@@H](C2)N(C)CC[C@]314
# Test: Intranasal bioavailability of hydrocodone conjugates in rats, LC/MS/MS
# Details: intranasal, 1 mg/kg
smiles,measurement,setting,value
"CC[C@H](C)[C@H](NC(=O)[C@H](Cc1ccccc1)NC(=O)[C@H](Cc1ccccc1)NC(=O)[C@H](Cc1ccc(O)cc1)NC(=O)[C@@H](N)Cc1ccc(O)cc1)C(=O)OC1=CC[C@H]2[C@H]3Cc4ccc(OC)c5c4[C@@]2(CCN3C)[C@H]1O5 [YYFFI[SEQ ID NO: 8]-HC, Tyr-Tyr-Phe-Phe-Ile[SEQ ID NO: 8]-(6-O)-Hydrocodone] (H-YYFFI-X1)",Mean HC (hydrocodone) concentration,0 min,0 ng/mL
same,Mean HC + HM concentration,0 min,0 ng/mL
same,Mean HM (hydromorphone) concentration,0 min,0 ng/mL
same,Mean HC (hydrocodone) concentration,5 min,28 ng/mL
same,Mean HC + HM concentration,5 min,28 ng/mL
same,Mean HM (hydromorphone) concentration,5 min,bql^3
same,Mean HC (hydrocodone) concentration,15 min,27 ng/mL
same,Mean HC + HM concentration,15 min,27 ng/mL
same,Mean HM (hydromorphone) concentration,15 min,bql^4
same,Mean HC (hydrocodone) concentration,30 min,16 ng/mL
same,Mean HC + HM concentration,30 min,16 ng/mL
same,Mean HM (hydromorphone) concentration,30 min,bql^5
same,Mean HC (hydrocodone) concentration,60 min,21 ng/mL
same,Mean HC + HM concentration,60 min,21 ng/mL
same,Mean HM (hydromorphone) concentration,60 min,bql^6
